Source: patent publication US20040220384A1 (Takeda / Millennium, published 2004)
Non-standard residues stand in square brackets, D forms with d. No end group written: not given here. Trp(6-Br) = N[C@@H](Cc1c[nH]c2cc(Br)ccc12)C(=O)O; dTrp(6-Br) = N[C@H](Cc1c[nH]c2cc(Br)ccc12)C(=O)O

T1: human GPR7 (human, UniProt P48145 1-328)
T1 sequence: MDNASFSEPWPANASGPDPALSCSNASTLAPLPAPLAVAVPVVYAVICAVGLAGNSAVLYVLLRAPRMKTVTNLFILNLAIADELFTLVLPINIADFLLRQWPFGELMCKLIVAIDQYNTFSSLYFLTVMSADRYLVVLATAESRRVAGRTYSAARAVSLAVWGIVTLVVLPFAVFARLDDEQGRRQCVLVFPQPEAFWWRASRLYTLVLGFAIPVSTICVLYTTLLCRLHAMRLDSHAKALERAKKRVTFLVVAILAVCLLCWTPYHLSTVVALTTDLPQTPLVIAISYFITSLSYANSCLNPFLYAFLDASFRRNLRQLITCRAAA

T2: bovine GPR7 (bovine, UniProt Q8MJV3 1-331)
T2 sequence: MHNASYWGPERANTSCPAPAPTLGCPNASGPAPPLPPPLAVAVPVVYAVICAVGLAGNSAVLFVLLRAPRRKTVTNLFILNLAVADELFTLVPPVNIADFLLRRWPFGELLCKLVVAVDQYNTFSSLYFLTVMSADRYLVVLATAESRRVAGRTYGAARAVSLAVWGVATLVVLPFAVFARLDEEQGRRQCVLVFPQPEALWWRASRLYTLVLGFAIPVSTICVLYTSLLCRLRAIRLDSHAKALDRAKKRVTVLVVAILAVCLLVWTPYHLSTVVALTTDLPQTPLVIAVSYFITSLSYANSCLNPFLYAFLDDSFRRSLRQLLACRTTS

T3: bovine GPR8 (bovine, UniProt Q8MJV2 1-336)
T3 sequence: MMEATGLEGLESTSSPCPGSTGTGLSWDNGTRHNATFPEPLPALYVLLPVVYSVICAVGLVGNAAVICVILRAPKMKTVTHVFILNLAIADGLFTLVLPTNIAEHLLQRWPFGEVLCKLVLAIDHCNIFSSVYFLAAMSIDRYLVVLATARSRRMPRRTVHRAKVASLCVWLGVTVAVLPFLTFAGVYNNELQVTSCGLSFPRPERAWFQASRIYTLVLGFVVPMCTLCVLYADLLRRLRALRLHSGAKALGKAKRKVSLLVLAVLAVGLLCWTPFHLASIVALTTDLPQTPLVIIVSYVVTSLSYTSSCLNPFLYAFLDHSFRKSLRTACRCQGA

T4: rat GPR7 (rat TGR26) (rat, UniProt Q56UD9 1-329)
T4 sequence: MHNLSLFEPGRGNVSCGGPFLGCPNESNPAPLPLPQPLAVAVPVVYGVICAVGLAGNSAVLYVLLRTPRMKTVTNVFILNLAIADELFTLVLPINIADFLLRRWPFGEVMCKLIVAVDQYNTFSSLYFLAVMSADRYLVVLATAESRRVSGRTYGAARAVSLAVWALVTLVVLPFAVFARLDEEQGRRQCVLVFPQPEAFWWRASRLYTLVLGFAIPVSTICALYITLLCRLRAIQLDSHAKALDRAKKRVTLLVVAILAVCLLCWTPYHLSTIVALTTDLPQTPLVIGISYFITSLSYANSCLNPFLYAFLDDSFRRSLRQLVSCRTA


Experiments:
human GPR7 [1] = molecular target: T1, human GPR7; assay: cell-based or functional assay
human GPR8 = human GPR8 (human, UniProt P48146 1-333); assay: cell-based or functional assay
human GPR8, sequence (P48146 whole entry): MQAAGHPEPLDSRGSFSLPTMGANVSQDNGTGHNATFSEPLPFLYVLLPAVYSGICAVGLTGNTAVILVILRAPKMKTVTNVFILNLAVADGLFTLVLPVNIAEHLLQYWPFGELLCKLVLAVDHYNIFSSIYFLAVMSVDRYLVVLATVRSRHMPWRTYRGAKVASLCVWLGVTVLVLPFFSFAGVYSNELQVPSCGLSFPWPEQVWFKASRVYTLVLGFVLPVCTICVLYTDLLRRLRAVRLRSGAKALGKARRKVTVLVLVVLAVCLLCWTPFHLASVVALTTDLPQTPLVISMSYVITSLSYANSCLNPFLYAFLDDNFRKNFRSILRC

bovine GPR7 = molecular target: T2, bovine GPR7; assay: cell-based or functional assay
bovine GPR8 = molecular target: T3, bovine GPR8; assay: cell-based or functional assay
rat GPR7 (rat TGR26) = molecular target: T4, rat GPR7 (rat TGR26); assay: cell-based or functional assay
human GPR7 [2] = molecular target: T1, human GPR7; assay: binding inhibition of iodine-labeled hGPR7L-23 on human GPR7-expressed CHO cell membrane fraction
Procedure: The peptides shown in TABLE 3 are those obtained by diluting the stock solution of […] or 10⁻³ M with the assay buffer in 10⁻⁵ M, 10⁻⁶ M, 10⁻⁷ M, 10⁻⁸ M, 10⁻⁹ M, 10⁻¹⁰ M and 10⁻¹¹ M. As NBS, hGPR7L-23 was prepared in a final concentration of 10⁻⁵ M. The sample solution and NSB prepared were dispensed on a polypropylene-made 96-well plate, the assay buffer was dispensed thereto to make the total volume 50 μl, and 25 μl of the iodine-labeled product dilution was added thereto. After agitation, 25 μl of the solution of human GPR7-expressed CHO cell membrane fraction were dispensed thereto and agitated, followed by incubation at room temperature for 1.5 hour. Using a cell harvester for the 96-well plate, the culture medium was adsorbed onto a filter unit, which had previously been wetted with an assay buffer (50 mM Tris-HCl, pH7.5). After washing 5 times with the assay buffer, the filter unit was thoroughly dried. After 50 μl of a liquid scintillator was dispensed thereto, the radioactivity was counted on a Top Count (Packard) and the data was analyzed in triplet (FIG. 33).

| IC50 of intracellular cAMP production suppression (cAMP production inhibition rate) (human GPR7 [1]) | IC50 of intracellular cAMP production suppression (cAMP production inhibition rate) (human GPR8) | IC50 of intracellular cAMP production suppression (cAMP production inhibition rate) (bovine GPR7) | IC50 of intracellular cAMP production suppression (cAMP production inhibition rate) (bovine GPR8) | IC50 of intracellular cAMP production suppression (cAMP production inhibition rate) (rat GPR7 (rat TGR26)) | IC50 (human GPR7 [2]) | Binder |
| --- | --- | --- | --- | --- | --- | --- |
| 0.43 nM | 8.1 nM | 1.2 nM | 5.4 nM | 0.25 nM | 0.31 nM | WYKPTAGQGYYSVGRAAGLLSGFHRSPYA (also called bovine GPR7 ligand B; non-brominated GPR7L) [Trp1-bovine GPR7L(29)] |
| 106 nM | 770 nM | 360 nM | 424 nM | 49 nM | 13 nM | [dTrp(6-Br)]YKPAAGHSSYSVGRAAGLLSGLRRSPYA [DTrp(6Br)1-human GPR7L(29)] |
| 35 nM | 198 nM | 77 nM | 34 nM | 2.5 nM | 6.1 nM | [dTrp(6-Br)]YKPTAGQGYYSVGRAAGLLSGFHRSPYA [DTrp(6Br)1-bovine GPR7L(29)] |
| 0.58 nM | 9.7 nM | 1.9 nM | 4 nM | 0.21 nM | 0.34 nM | [Trp(6-Br)]YKPTAGQGYYSVGRAAGLLSGFHRSPYA [LTrp(6Br)1-bovine GPR7L(29)] |
| 0.44 nM | 32 nM | 1.8 nM | 51 nM | 0.47 nM | 0.32 nM | [Trp(6-Br)]YKPAAGHSSYSVGRAAGLLSGLRRSPYA [LTrp(6Br)1-human GPR7L(29)] |
| 0.86 nM | 8.8 nM | 1.2 nM | 14 nM | 0.3 nM | 0.34 nM | WYKPAAGSHHYSVGRAAGLLSSFHRFPST (also called rat GPR7 ligand B) [Trp1-rat GPR7L(29)] |
| 0.58 nM |  |  |  |  |  | WYKPAAGHSSYSVGRAAGLLSGL [Trp1-human GPR7L(23)] |
| 0.31 nM | 2.8 nM | 0.51 nM | 3.5 nM | 0.18 nM | 0.3 nM | WYKPAAGSHHYSVGRAAGLLSSFH (also called rat GPR7 ligand A) [Trp1-rat GPR7L(24)] |
